Test results taken from the supplement of paper PMC10567573.

B1: CAMK2D (parent)
chain: IVRLHDSISEEGFHYLVFDLVTGG

Variants of: B1
Assay: protein stability index of a GFP-peptide fusion (GPS, HEK-293T) (PSI 1-6); higher = more stable
Conditions: c terminus: a fixed tail appended
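Further: lentivirally expressed fusions sorted by FACS into six bins by GFP to DsRed ratio, PSI derived from sequencing read proportions per bin multiplied by bin number.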

Protein stability index, by site and new letter:
G23: V 2.43; W 2.89; R 2.53; Y 4.01; Q 2.59; P 3.1; T 3.2; N 2.49
G24: Y 3.88; D 2.26; P 3.4; E 4.45; R 2.09; S 2.88; Q 2.89; V 3.44; F 1.57; L 2.13; W 2.09; K 2.87; C 2.4; M 3.78
